Measurements from patent publication US20150315260A1 (Sanofi, published 2015).
Starred links: 1 amine or outer side, 2 acyl side, 3 side chain; linkers in the order of their positions; H or OH if unused. Non-standard residues stand in square brackets, D forms with d. Groups on a side chain read outwards from the residue. No end group written: not given here. *: point of attachment. γGlu = O=C(O)[C@H](CCC(=O)[*:2])N[*:1]; Stearoyl = CCCCCCCCCCCCCCCCCC(=O)*; Palmitoyl = CCCCCCCCCCCCCCCC(=O)*; Aib = CC(C)(N)C(=O)O

Columns and labels:
Assay in all cases: cell-based or functional assay
human GIP receptor = molecular target: T1, human GIP receptor (human, UniProt P48546 22-466)
T1 sequence (looked up): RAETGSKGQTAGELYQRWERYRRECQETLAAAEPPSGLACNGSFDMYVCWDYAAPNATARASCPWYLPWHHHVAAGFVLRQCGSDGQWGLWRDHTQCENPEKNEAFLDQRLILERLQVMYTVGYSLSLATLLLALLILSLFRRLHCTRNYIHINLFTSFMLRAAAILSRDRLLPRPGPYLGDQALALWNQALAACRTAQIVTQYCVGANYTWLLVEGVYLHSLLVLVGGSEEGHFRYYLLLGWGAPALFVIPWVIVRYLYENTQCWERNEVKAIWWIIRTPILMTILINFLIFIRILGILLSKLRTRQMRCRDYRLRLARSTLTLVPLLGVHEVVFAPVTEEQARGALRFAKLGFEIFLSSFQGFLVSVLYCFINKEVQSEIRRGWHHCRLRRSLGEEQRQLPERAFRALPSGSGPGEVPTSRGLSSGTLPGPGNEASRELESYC

human glucagon receptor = human glucagon receptor (human, UniProt P47871 26-477)
Chain of human glucagon receptor (P47871 26-477): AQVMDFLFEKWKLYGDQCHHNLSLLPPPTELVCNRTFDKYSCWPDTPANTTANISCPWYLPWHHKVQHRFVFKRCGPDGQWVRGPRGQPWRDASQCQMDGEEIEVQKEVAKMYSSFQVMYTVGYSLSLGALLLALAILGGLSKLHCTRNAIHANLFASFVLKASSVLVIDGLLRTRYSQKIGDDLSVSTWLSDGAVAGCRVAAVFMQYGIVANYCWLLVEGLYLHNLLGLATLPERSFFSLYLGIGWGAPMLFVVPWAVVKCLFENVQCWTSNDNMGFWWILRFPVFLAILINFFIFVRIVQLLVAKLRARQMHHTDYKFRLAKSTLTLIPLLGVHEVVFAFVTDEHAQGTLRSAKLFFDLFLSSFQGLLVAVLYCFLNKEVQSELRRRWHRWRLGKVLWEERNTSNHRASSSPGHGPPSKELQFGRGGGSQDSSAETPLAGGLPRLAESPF

human GLP-1 receptor = human GLP-1 receptor (human, UniProt P43220 24-463)

B1: exendin-4 derivative SEQ ID NO: 9 (peptide)
peptide: H[Aib]QGTFTSDLSKQK([γGlu-Stearoyl])DEQRAKLFIEWL[Aib]AGGPSSGAPPPS-NH2
modifications: N-terminus assumed
SMILES: CCCCCCCCCCCCCCCCCC(=O)N[C@@H](CCC(=O)NCCCC[C@H](NC(=O)[C@H](CCC(N)=O)NC(=O)[C@H](CCCCN)NC(=O)[C@H](CO)NC(=O)[C@H](CC(C)C)NC(=O)[C@H](CC(=O)O)NC(=O)[C@H](CO)NC(=O)[C@@H](NC(=O)[C@H](Cc1ccccc1)NC(=O)[C@@H](NC(=O)CNC(=O)[C@H](CCC(N)=O)NC(=O)C(C)(C)NC(=O)[C@@H](N)Cc1c[nH]cn1)[C@@H](C)O)[C@@H](C)O)C(=O)N[C@@H](CC(=O)O)C(=O)N[C@@H](CCC(=O)O)C(=O)N[C@@H](CCC(N)=O)C(=O)N[C@@H](CCCNC(=N)N)C(=O)N[C@@H](C)C(=O)N[C@@H](CCCCN)C(=O)N[C@@H](CC(C)C)C(=O)N[C@@H](Cc1ccccc1)C(=O)N[C@H](C(=O)N[C@@H](CCC(=O)O)C(=O)N[C@@H](Cc1c[nH]c2ccccc12)C(=O)N[C@@H](CC(C)C)C(=O)NC(C)(C)C(=O)N[C@@H](C)C(=O)NCC(=O)NCC(=O)N1CCC[C@H]1C(=O)N[C@@H](CO)C(=O)N[C@@H](CO)C(=O)NCC(=O)N[C@@H](C)C(=O)N1CCC[C@H]1C(=O)N1CCC[C@H]1C(=O)N1CCC[C@H]1C(=O)N[C@@H](CO)C(N)=O)[C@@H](C)CC)C(=O)O
Human GIP receptor
  EC50 hGIP-R (cAMP formation): 1.16 nM
Human glucagon receptor
  EC50 hGlucagon-R (cAMP formation): 0.0154 nM
Human GLP-1 receptor
  EC50 hGLP-1R (cAMP formation): 0.0064 nM

B2: exendin-4 derivative SEQ ID NO: 8 (peptide)
peptide: H[Aib]QGTFTSDLSKQK([γGlu-γGlu-Palmitoyl])DEQRAKLFIEWL[Aib]AGGPSSGAPPPS-NH2
modifications: N-terminus assumed
SMILES: CCCCCCCCCCCCCCCC(=O)N[C@@H](CCC(=O)N[C@@H](CCC(=O)NCCCC[C@H](NC(=O)[C@H](CCC(N)=O)NC(=O)[C@H](CCCCN)NC(=O)[C@H](CO)NC(=O)[C@H](CC(C)C)NC(=O)[C@H](CC(=O)O)NC(=O)[C@H](CO)NC(=O)[C@@H](NC(=O)[C@H](Cc1ccccc1)NC(=O)[C@@H](NC(=O)CNC(=O)[C@H](CCC(N)=O)NC(=O)C(C)(C)NC(=O)[C@@H](N)Cc1c[nH]cn1)[C@@H](C)O)[C@@H](C)O)C(=O)N[C@@H](CC(=O)O)C(=O)N[C@@H](CCC(=O)O)C(=O)N[C@@H](CCC(N)=O)C(=O)N[C@@H](CCCNC(=N)N)C(=O)N[C@@H](C)C(=O)N[C@@H](CCCCN)C(=O)N[C@@H](CC(C)C)C(=O)N[C@@H](Cc1ccccc1)C(=O)N[C@H](C(=O)N[C@@H](CCC(=O)O)C(=O)N[C@@H](Cc1c[nH]c2ccccc12)C(=O)N[C@@H](CC(C)C)C(=O)NC(C)(C)C(=O)N[C@@H](C)C(=O)NCC(=O)NCC(=O)N1CCC[C@H]1C(=O)N[C@@H](CO)C(=O)N[C@@H](CO)C(=O)NCC(=O)N[C@@H](C)C(=O)N1CCC[C@H]1C(=O)N1CCC[C@H]1C(=O)N1CCC[C@H]1C(=O)N[C@@H](CO)C(N)=O)[C@@H](C)CC)C(=O)O)C(=O)O
Human GIP receptor
  EC50 hGIP-R (cAMP formation): 2.14 nM
Human glucagon receptor
  EC50 hGlucagon-R (cAMP formation): 0.0281 nM
Human GLP-1 receptor
  EC50 hGLP-1R (cAMP formation): 0.0023 nM

## H[Aib]QGTFTSDLSKQK([γGlu-γGlu-Palmitoyl])DEQRAKLFIEWL[Aib]KGGPSSGAPPPS-NH2 [exendin-4 derivative SEQ ID NO: 15]
Human GIP receptor
  EC50 hGIP-R (cAMP formation): 1.85 nM
Human glucagon receptor
  EC50 hGlucagon-R (cAMP formation): 0.0426 nM

## H[Aib]QGTFTSDLSKQK([γGlu-γGlu-Palmitoyl])DEQRAKLFIEWL[Aib]SGGPSSGAPPPS-NH2 [exendin-4 derivative SEQ ID NO: 13]
Human GIP receptor
  EC50 hGIP-R (cAMP formation): 2.39 nM
Human glucagon receptor
  EC50 hGlucagon-R (cAMP formation): 0.0228 nM
